Test results reported in patent US11679121B2, “Morpholino oligonucleotides useful in cancer treatment” (United States Government As Represented By The Department …, priority 2018, dated 2023).
Entries after “also recorded” stand apart in the source; their conditions may differ.

Key:
MGMT [1] = test: Western blot of MGMT expression in tumor cell lines after scrape-loading or transfection-agent delivery of AMONs; format: cell-based, human
Protocol: The ability of each of three AMONs (SEQ ID NO: 1, SEQ ID NO: 2, and SEQ ID NO: 3) to inhibit MGMT expression in tumor cell lines was assessed. Three MGMT expressing solid tumor cell lines (T98G Glioma, H460 and A549 non-small-cell-lung cancer cell lines) were transduced with AMONs using a scrape-loading technique (Partridge M et al, Antisense Nucleic Acid Drug Dev 6, 169-175 (1996); incorporated by reference herein). […] This was replicated in H460 and A549 NSCLC lines.
[…] transfection agents were also used to introduce the AMONs into the cells and produced similar results (FIG. 1B). MGMT silencing was not achieved when cells were exposed to AMONS without scrape-loading or liposomal transfection agents (controls).
Cells were maintained at 37° C. and in an atmosphere containing 5% CO2. Three MGMT antisense oligonucleotide sequences: SEQ ID NO: 1-5′-[…]-3′; SEQ ID NO: 2-5′-[…]-3′; SEQ ID NO: 3-5′-[…]-3′ and one non-specific control sequence: SEQ ID NO: 4-5′-[…]-3′ were synthesized and purchased from Gene Tools, LLC (Philomath, Oreg., USA). Mouse anti-tubulin antibody (T9026) was purchased from Sigma (St. Louis, Mo., USA). Anti-MGMT (#2739), caspase 3 (#9662) and phospho-p53 (Ser15) (#9284) antibodies were purchased from Cell Signaling (Danvers, Mass., USA). Mouse anti-dynamin II (sc-166526) monoclonal antibody was purchased from Santa Cruz Biotechnology (Santa Cruz, Calif., USA).
Delivery of MGMT-morpholino in vitro into the cancer cells: Scrape delivery: 10^6 cancer cells were seeded on a 10-cm culture plate. The culture plate was placed on a flat surface and the cells scraped off the surface with a sterile cell scraper. Different doses or combinations of MGMT-morpholinos were added to the cells. Scraped cell suspensions were pipetted up and down twice and transferred to another culture plate.
Transfection agent delivery: 10^6 cancer cells were seeded in 10-cm culture plate. Cells were treated with transfection agent DharmaFECT (GE Dharmacon; Lafayette, Colo., USA) and MGMT-morpholinos mixture (1:1; v/v).
(§1) Cell viability assay and western blot analyses: Cell viability and proliferation was measured using the WST-1 Proliferation Assay Kit from Chemicon International Inc. (Temecula, Calif.). Cells or tissues were harvested and then washed with ice-cold PBS twice before the addition of RIPA lysis buffer containing protease and phosphatase inhibitors. Protein concentration was quantified using the Bio-Rad method. Equal amounts of protein were loaded into each well and separated by 7.5 or 12% SDS-PAGE gel followed by transfer onto polyvinylidene difluoride membranes (BioRad, Richmond, Calif.). Membranes were blocked using 5% nonfat dry milk or 2% bovine serum albumin (BSA) in PBS-T. The blots were then incubated with primary antibodies (1:200-1:1,000) overnight at 4° C. Secondary antibody (1:5,000; Cell signaling technology, Danvers, Mass.) was incubated for 2 h at room temperature. Immunoblots were developed using the chemiluminescence detection system (Thermo Scientific, Waltham, Mass.) according to the manufacturer's protocol and autoradiography. Quantification of immunoblotting signal of respective proteins was performed using UN-SCAN-IT Gel software (Silk Scientific, Inc., Orem, Utah).

MGMT [2] = test: Western blot of MGMT expression after ionizing-radiation-enhanced delivery of AMONs, without scrape-loading or transfection agents; format: cell-based, human
Protocol: The ability of ionizing radiation to enhance the cytosolic delivery of AMONs in T98G glioma cell lines and suppress MGMT expression was assessed. T98 G cells were exposed to AMON SEQ ID NO: 2 alone, SEQ ID NO: 3 alone, or the combination of SEQ ID NO: 1, SEQ ID NO: 2 and SEQ ID NO: 3, one hour after exposure to 1 Gy of ionizing radiation. […] As with the use of scrape loading and lysosomal transfection agents, the inhibition of expression with radiation enhanced delivery of AMONS was transient, with peak inhibition at 3 days and restoration of MGMT expression by 7 days. Based on these findings a combination of sequences 1, 2 and 3 were used for further experiments.
To determine the optimal timing for exposure to AMON with respect to exposure to radiation, T98G cell lines were exposed to AMONs 2 hours and 1 hour before radiation as well as 1 and 24 hours after radiation exposure (FIG. 2B). The best inhibition was observed when cells were exposed to AMON 24 hours after radiation. This time line was adopted for further experiments. Different tumor cell lines required different doses of radiation to enhance delivery of AMON. Knockdown could be achieved in T98G cell lines at 1 Gy while H460 and A549 cell lines required exposure to 6-12 Gy for best results with no inhibition at lower doses of ionizing radiation (FIG. 2C).
Radiation delivery: cell culture: 10^6 cancer cells were exposed to different doses of radiation (0.5-12 Gy) at room temperature using a Philips gamma chamber (Philips Medical Systems, Andover, Mass.). After irradiation, cells were treated with mixtures of MGMT-morpholinos (SEQ ID NO: 1, SEQ ID NO: 2, SEQ ID NO: 3=1:1:1; v/v/v) at different time points and at a final concentration of 15 μM.
as §1

T98G = conditions: Yoshino A et al 2010; cited from earlier work
T98G cells = test: Temozolamide cytotoxicity after radiation and AMONs (Western blot of phosphorylated-p53 and caspase 3); format: cell-based, human; conditions: for Susceptibility of cells to temozolamide (phosphorylated-p53, caspase 3): T98G, AMONs 1 day after 1 Gy, 75 or 150 μg/ml temozolamide two days later, lysates 1 and 4 days, FIG. 3
Protocol: FIG. 3 is a flow chart of an experimental model that includes treatment of cells with radiation, morpholino oligonucleotides of SEQ ID NO: 1, SEQ ID NO: 2, and SEQ ID NO: 3, and 75 or 150 μg/ml temozolamide as indicated.
MGMT expressing glioma cell lines such as T98G are known to be resistant to the cytotoxic effects of temozolomide (Yoshino A et al, Int J Oncol 36, 1367-1377 (2010); incorporated by reference herein). AMONs were administered 1 day after exposure of the T98G cells to 1 Gy of radiation and 75 or 150 μg/ml temozolamide administered two days after administration of the AMONs. Whole cell lysates were then collected 1 and 4 days after exposure to the temozolamide and a Western blot using antibodies specific for the indicated proteins performed.
as §1

MGMT [3] = test: Subcutaneous H460 xenograft tumors in athymic nude rats: local radiation plus iv AMON, Western blot of MGMT in tumor lysates; format: in vivo, human
Protocol: Due to the inconsistent growth of intracranial T98G cell lines, subcutaneous H460 NSCCL tumors in athymic nude rats were studied. 2.5×10^7 H460 cells were subcutaneously injected in each of their hind limbs of 6 animals. When the tumor reached 10 mm in diameter, a single dose of 5 Gy of ionizing radiation was delivered to the tumor field. AMON was administered intravenously (iv) through the femoral vein 24 hours after radiation. Tumors were harvested 3 days after exposure to AMONs.
Delivery of MGMT-morpholino in vivo: Female (200-250 g) nude (mu/rnu) and heterozygous (rnu/wt) rats were selected from the breeding colony maintained in the animal facility. For subcutaneous tumor model, a total of 2.5×10^7 cells were mixed (ratio 1:1; v/v) with Matrigel Basement Membrane Matrix (BD Biosciences, Bedford, Mass.), and the mixture was injected subcutaneously into both left and right hind legs. At d 7 after inoculation, right SQ tumor was exposed to single dose of radiation (5 Gy) with shielding the rest of body using a Philips gamma chamber (Philips Medical Systems, Andover, Mass.), and left SQ tumor of the same animal without radiation was served as control. A total of 30 mM MGMT-morpholinos SEQ ID NO: 1, SEQ ID NO: 2, SEQ ID NO: 3=1:1:1; v/v/v) was administered intravenously 24 h after irradiation. Tissues (SQ tumors, brain, liver, spleen and kidney) were harvested 3 days after morpholinos and subjected to further protein and DNA analysis.
Cell viability assay and western blot analyses: Cell viability and proliferation was measured using the WST-1 Proliferation Assay Kit from Chemicon International Inc. (Temecula, Calif.). Cells or tissues were harvested and then washed with ice-cold PBS twice before the addition of RIPA lysis buffer containing protease and phosphatase inhibitors. Protein concentration was quantified using the Bio-Rad method. […] Quantification of immunoblotting signal of respective proteins was performed using UN-SCAN-IT Gel software (Silk Scientific, Inc., Orem, Utah).

MGMT gene = test: MGMT-gene methylation status of subcutaneous tumors by pyrosequencing; format: in vivo, human; conditions: after implantation, radiation or AMONs
Protocol: Measurement of MGMT DNA methylation status: Subcutaneous xenograft tumor DNA was isolated using DNeasy Blood & Tissue Kit from Qiagen International (Germantown, Md., USA). In order to assure the quality and purity of DNA samples, the ratio of A260/A280 was determined and recorded samples was above 1.9. The percentage methylation status of MGMT DNA at CpG islands in samples were measured at using pyrosequening.

[4] = T98G cells, scrape-loading and liposomal transfection agents
[5] = T98G cells, scrape-loading, FIG. 1A
[6] = T98G cells, AMON one hour after 1 Gy ionizing radiation, lysates 3 and 7 days, FIG. 2A

## 5′-ATTCCTTCACGGCCAGTCCTT-3′ (morpholino, chemistry not fully specified) [SEQ ID NO: 3]
MGMT [1]; T98G cells, scrape delivery or lipofectamine/liposomal transfection, lysates 3 and 7 days after treatment, FIG. 1C
  Inhibition of MGMT expression (Western blot): transient; also recorded: inhibition of MGMT
MGMT [1]; [4]
  Time of best inhibition of MGMT expression: 3 days
  Time of restoration of MGMT expression: ≤ 7 days
MGMT [1]; [5]
  Inhibition of MGMT expression (Western blot): most effective in silencing MGMT expression; also recorded: inhibition of MGMT expression
MGMT [2]; [6]
  Inhibition of MGMT expression (Western blot): inhibition of MGMT

## 5′-TTCCATAACACCTGTCTGGTT-3′ (morpholino, chemistry not fully specified) [SEQ ID NO: 2]
MGMT [1]; [5]
  Inhibition of MGMT expression (Western blot): most effective in silencing MGMT expression; also recorded: inhibition of MGMT expression

## 5′-TTTCGTGCAGACCCTGCTCTT-3′ (all phosphorodiamidate morpholino (PMO)) [SEQ ID NO: 1]
MGMT [1]; [5]
  Inhibition of MGMT expression (Western blot): inhibition of MGMT expression

## Cn1nnc2c(C(N)=O)ncn2c1=O [temozolomide, reference compound]
T98G
  Cytotoxic effects on MGMT expressing glioma cell lines: resistant
T98G cells; T98G after 1 Gy and AMONs, 75 and 150 μg/mL
  Dose dependence of enhanced cytotoxic effects: dose dependent

## SEQ ID NO: 2 and SEQ ID NO: 3: combination of morpholino oligonucleotides of SEQ ID NO: 2 and SEQ ID NO: 3 (chain 1 TTCCATAACACCTGTCTGGTT; chain 2 ATTCCTTCACGGCCAGTCCTT; morpholino, chemistry not fully specified)
MGMT [2]; [6]
  Inhibition of MGMT expression (Western blot): inhibition of MGMT

B1: combination of SEQ ID NO: 1, SEQ ID NO: 2 and SEQ ID NO: 3: mixture of MGMT-morpholinos SEQ ID NO: 1, SEQ ID NO: 2, SEQ ID NO: 3 = 1:1:1 v/v/v; used for experiments after b163 (nucleic acid)
chain 1: TTTCGTGCAGACCCTGCTCTT
chain 2: TTCCATAACACCTGTCTGGTT
chain 3: ATTCCTTCACGGCCAGTCCTT
modifications: morpholino mixture, chemistry not fully specified
notes: used for experiments after b163
MGMT [1]; H460 NSCLC cells, transfection agents, 6 μM and 15 μM, FIG. 1B
  Inhibition of MGMT expression (Western blot): inhibition of MGMT expression
MGMT [1]; [5]
  Inhibition of MGMT expression (Western blot): most effective in silencing MGMT expression
MGMT [1]; T98G cells, scrape-loading, FIG. 1A, SEQ ID NO: 2, and SEQ ID NO: 3
  Inhibition of MGMT expression (Western blot): inhibition of MGMT expression
MGMT [2]; H460 and A549 cell lines
  Radiation dose required for best results (knockdown): 6-12 Gy
MGMT [2]; H460 and A549 cell lines, doses below 6-12 Gy
  Inhibition of MGMT expression at lower doses of ionizing radiation: no inhibition
MGMT [2]; T98G cell lines
  Radiation dose at which knockdown could be achieved: 1 Gy
MGMT [2]; T98G cells, 24 hours after exposure to the dose of radiation indicated, FIG. 2C
  Inhibition of MGMT expression (Western blot): inhibition of MGMT
MGMT [2]; T98G cells, AMON one hour after 1 Gy ionizing radiation, lysates 3 and 7 days, FIG. 2A, SEQ ID NO: 2, and SEQ ID NO: 3
  Inhibition of MGMT expression (Western blot): inhibition of MGMT
MGMT [2]; T98G cells, AMON one hour after 1 Gy ionizing radiation, lysates 3 and 7 days, FIG. 2A, listed as combination of sequences 1, 2 and 3
  Inhibition of MGMT expression (Western blot): most effective at inhibiting MGMT expression
MGMT [2]; T98G cells, tested 2 h and 1 h before, 1 and 24 h after radiation
  Time of exposure to AMON after radiation that gave the best inhibition: 24 h
MGMT [2]; T98G cells, treated before or after exposure to 1 Gy radiation, FIG. 2B
  Inhibition of MGMT expression (Western blot): inhibition of MGMT
MGMT [3]; H460 subcutaneous control tumors, systemic AMON but no radiation
  Inhibition of MGMT expression in tumors (Western blot): not seen
MGMT [3]; H460 subcutaneous tumors, 5 Gy to tumor 24 hours before iv AMON, harvested 3 days after
  Inhibition of MGMT expression in tumors (Western blot): inhibition of MGMT expression was achieved
MGMT [3]; H460 subcutaneous tumors, 5 Gy to tumor 24 hours before iv AMON, harvested 3 days after, listed as combination of morpholino oligonucleotides of SEQ ID NO: 1, SEQ ID NO: 2, and SE
  Inhibition of MGMT expression in tumors (Western blot): inhibition of MGMT expression
MGMT gene
  Changes in MGMT-gene methylation status: No significant changes
T98G cells
  Susceptibility of cells to temozolamide (phosphorylated-p53, caspase 3): susceptible to temozolomide
T98G cells; listed as morpholino oligonucleotides of SEQ ID NO: 1, SEQ ID NO: 2, and SEQ ID NO: 3
  Susceptibility of cells to temozolamide (phosphorylated-p53, caspase 3): enhanced cytotoxic effects of temozolamide
